Assay results published in patent publication US20240409648A1 (Boehringer Ingelheim, published 2024).

B1: Mouse 81A1 (antibody 81A1) (antibody, V domains shown)
VH: QVQLKESGPGLVAPSQSLFITCTVSGFSLSSYEINWVRQVPGKGLEWLGVIWTGITTNYNSALISRLSISKDNSKSLVFLKMNSLQTDDTAIYYCARGTGTGFYYAMDYWGQGTSVTVSS
VL: DIQMTQTTSSLSASLGDRVTISCRASQDIYKYLNWYQQKPDGTLKLLIYYTSGLHSGVPSRFSGSGSGTDFSLTISNLEPEDIATYFCQQDSKFPWTFGGDTKLEIK
B2: Mouse 73C5 (antibody 73C5) (antibody, V domains shown)
VH: QVQLKESGPGLVAPSQSLSITCTVSGFSLTNYAVHWVRQFPGKGLEWLGVIWSDGSTDFNAPFKSRLSINKDNSKSQVFFKMNSLQIDDTAIYYCARKGGYSGSWFAYWGQGTLVTVSA
VL: DIVMTQSQKFLSTSVGVRVSVTCKASQDVGTNVLWYQQKIGQSPKPLIYSASYRHSGVPDRFTGSGSGTDFTLIISNVQSEDLAEYFCQQYSRYPLTFGPGTKLELK
B3: Mouse 73F6 (antibody 73F6) (antibody, V domains shown)
VH: QVQLKESGPGLVAPSQSLSITCTVSGFSLTNYAVHWVRQFPGKGLEWLGVIWSDGSTDYNAPFKSRLSINKDNSKSQVFFKMNSLQTDDTAIYYCARKGGYSGSWFAYWGQGTLVTVSA
VL: DIVMTQSQKFLSTSVGVRVSVTCKASQDVGTNVLWYQQKIGQSPKALIYSASYRHSGVPDRFTGSGSGTDFTLIITNVQSEDLAEYFCQQYSRYPLTFGPGTKLELK
B4: antibody 76E10 (antibody, V domains shown)
VH: QVQLKESGPVLVAPSQSLSITCTVSGFSLTNYGVHWVRQPPGKGLEWLGVIWPVGSTNYNSALMSRLSIHKDNSKSQVFLRMNSLQTDDTAIYYCAKMDWDDFFDYWGQGTTLTVSS
VL: DIVMTQSQKFMSATVGGRVNITCKASQNVGRAVAWYQQKPGQSPKLLTHSASNRYTGVPDRFTGSGSGTDFTLTITNMQSEDLADYFCQQYSSYPLTFGAGTKLDLK
B5: antibody 89A12 (antibody, V domains shown)
VH: EVQLQQSGAELVRPGASVRLSCTASGFNIKDDYIHWVRQRPKQGLEWLGRIDPANGNTKYDPRFQDKATITADTSSNTAYLHLSSLTSEDTAVYYCAKSFPDNYYSYDDAFAYWGQGTLVTVSA
VL: DIQMTQSPASQSASLGESVTFSCLASQTIGTWLGWYQQKPGKSPQLLIYRATSLADGVPSRFSGSGSGTNFSFKISSLQAEDLASYYCQQLYSGPYTFGGGTKLEIR
B6: antibody 67E7 (antibody, V domains shown)
VH: EVQLQQSGAEFVRPGASVKFSCTASGFNIKDDYIHWVRQRPEQGLEWVGRIDPANGNTKYAPKFQDKATITADTSSNTAYLQLSSLTSEDTAVYYCAKSFPNNYYSYDDAFAYWGQGTLVTVSA
VL: DIQMTQSPASQSASLGESVTFTCLASQTIGTWLGWYQQKPGKSPQLLIYRSTTLADGVPSRFSGSGSGTKFSFKISSLQAADFASYYCQQLYSAPYTFGGGTKLEIR
B7: Mouse 78C8 (antibody 78C8) (antibody, V domains shown)
VH: QVQLKESGPVLVAPSQSLSITCTVSGFSLTKFGVHWIRQTPGKGLEWLGVIWAGGPTNYNSALMSRLTISKDISQSQVFLRIDSLQTDDTAMYYCAKQIYYSTLVDYWGQGTSVTVSS
VL: DVLLTQTPLSLPVSLGDQASISCRSSQNIVHSNGNTYLQWYLQKPGQSPKLLIYKVSNRFSGVPDRFSGSGSGTDFTLKISRVEAEDLGVYYCFQGSHVPFTFGAGTKLELK
B8: antibody 172C8 (antibody, V domains shown)
VH: EVQLQQSGPELVKPGASVKLSCKASGYTFTDNYMNWVRQSHGKSLEWIGRVNPSNGDTKYNQNFKGKATLTVDKSLSTAYMQLNGLTSEDSAVYYCGRTKNFYSSYSYDDAMDYWGQGTSVTVSS
VL: DIQMTQSPASQSASLGESVTFTCLASQTIGTWLAWYQQRPGKSPQLLIYAATSLADGVPSRFSGSGSGTQFSFNIRSLQAEDFASYYCQQVYTTPLTFGGGTKLEIK
B9: Mouse 81B4 (antibody 81B4) (antibody, V domains shown)
VH: QVQLQQPGADFVRPGASMRLSCKASGYSFTSSWIHWVKQRPGQGLEWIGEINPGNVRTNYNENFRNKATLTVDKSSTTAYMQLRSLTSADSAVYYCTVVFYGEPYFPYWGQGTLVTVSA
VL: QIVLTQSPAIMSASLGERVTMTCTASSSVSSSYFHWYQQKPGSSPKLWIYRTSNLASGVPGRFSGSGSGTSYSLTISSMEAEDAATYYCHQFHRSPLTFGAGTKLELK
B10: Mouse 33D10 (antibody 33D10) (antibody, V domains shown)
VH: QVQLQQSGTELLKPGASVKLSCKASGNTVTSYWMHWVKQRPGQGLEWIGEILPSTGRTNYNENFKGKAMLTVDKSSSTAYMQLSSLASEDSAVYYCTIVYFGNPWFAYWGQGTLVTVSA
VL: QIVLTQSPAIMSASLGERVTMTCTASSSVSSSYLHWYQKKPGSSPKLWVYSTSNLASGVPVRFSGSGSGTSYSLTISSMEAEDAATYYCHQHHRSPVTFGSGTKLEMK

Legend:
[1] = target: cynomolgus IL-36R on BaF/3 cells (cynomolgus); test: cell-based or functional assay
[2] = target: T1, human IL-36R on cells (HEK293 cells transfected with full-length human IL-36R); NCI/ADR-RES cells; human … (human, UniProt Q9HB29 20-575); test: cell-based or functional assay
T1 sequence (looked up): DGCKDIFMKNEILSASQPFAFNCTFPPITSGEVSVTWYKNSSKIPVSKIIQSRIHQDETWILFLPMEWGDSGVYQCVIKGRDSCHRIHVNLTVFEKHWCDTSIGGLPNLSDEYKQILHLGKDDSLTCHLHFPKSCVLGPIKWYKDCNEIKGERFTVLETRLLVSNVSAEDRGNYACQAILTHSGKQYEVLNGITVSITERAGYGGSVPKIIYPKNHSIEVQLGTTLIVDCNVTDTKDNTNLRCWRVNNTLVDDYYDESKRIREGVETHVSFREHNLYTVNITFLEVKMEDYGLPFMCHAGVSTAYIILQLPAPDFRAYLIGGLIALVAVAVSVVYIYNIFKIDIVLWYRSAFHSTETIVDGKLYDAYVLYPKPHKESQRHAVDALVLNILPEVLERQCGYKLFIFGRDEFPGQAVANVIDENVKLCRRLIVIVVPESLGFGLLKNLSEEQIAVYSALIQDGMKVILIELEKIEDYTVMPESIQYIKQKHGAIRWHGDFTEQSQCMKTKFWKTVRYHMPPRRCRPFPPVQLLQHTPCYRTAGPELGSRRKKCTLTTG

| Binder | IC90 pNFκB, trun-IL-36a, BaF/3 cynomolgus IL-36R cells [1] | IC90 pNFκB, trun-IL-36b, BaF/3 cynomolgus IL-36R cells [1] | IC90 pNFκB, trun-IL-36g, BaF/3 cynomolgus IL-36R cells [1] | IC90 pNFκB, trun-IL-36g, human primary keratinocytes (NHK) [2] |
| --- | --- | --- | --- | --- |
| B1 | 0.6 nM | 0.9 nM | 1 nM |  |
| B2 | 0.2 nM | 1.6 nM | 1.5 nM |  |
| B3 | 0.5 nM | 0.7 nM | 0.8 nM |  |
| B4 | > 4 µM | > 333 nM | > 333 nM |  |
| B5 | > 4 µM | > 333 nM | > 333 nM |  |
| B6 | > 4 µM | > 333 nM | > 333 nM |  |
| B7 | 1 nM | 2.1 nM | 1.5 nM |  |
| B8 | > 4 µM | > 333 nM | > 333 nM |  |
| B9 | 2.4 nM | 3.5 nM | 5.1 nM | 0.5 nM |
| B10 | > 4 µM | > 333 nM | > 333 nM |  |
